Results as given in US11066482B2, “Specific plasmin inactivation by anticatalytic antibody” (priority 2017, dated 2021).

Assays:
Type in all cases: biochemical
[1] = biological target: Plasmin (Homo sapiens, UniProt P00747); test: Velocity of S2251 substrate cleavage (Michaelis-Menten); details: plasmin 100 nM, Pi 50 nM, S2251 0.1 to 4 mM
Description: FIGS. 2A-2D show comparative inhibition of plasmin activity by Pi EACA and a2AP. […] The percent residual activity of plasmin as a function of the log concentration of inhibitor is shown. […] Human plasmin (100 nM, Hematologic Technologies, Inc.) was mixed with or without Pi (50 nM) in the presence of the substrate S2251 (0.1 to 4 mM). The initial rate of substrate cleavage (6 min.) was monitored at A405. Data were plotted and analyzed using Michaelis-Menten kinetics by the Graphpad Prism Program. Means (duplicate observations) are shown and are representative of 4 separate experiments. […] The means of duplicate observations are shown. […] Plasmin (25 nM) was mixed with various concentrations (0-200 nM) of mouse Fab or chimeric Fab (cFab) and S2251 (0.5 mM) in TBS buffer pH 7.4. Plasmin activity was measured by the release of paranitroanilide product at A405 over time.
The effect of Pi on the velocity of substrate cleavage by human plasmin was examined. Human plasmin (100 nM, Hematologic Technologies, Inc.) was mixed with or without Pi (50 nM) in the presence of the substrate S2251 (0.1 to 4 mM). The initial rate of substrate cleavage (6 min.) was monitored at A405. Data were plotted and analyzed using Michaelis-Menten kinetics by the Graphpad Prism Program.

[2] = test system: African green monkey clots; test: Primate clot lysis, microtiter plate, urokinase; details: African green monkey plasma, Pi 0-2000 nM, urokinase 10 U
Description: (§1) FIGS. 3A-3D show binding and inhibitory specificity of Pi. […] The effect of various concentrations of Pi (0-2000 nM) on clots formed with human, baboon or African green monkey plasmas. Clot lysis was measured in microtiter plates after addition of urokinase as described in Methods.
(§2) The ability of Pi to inhibit primate clot lysis was also examined in a microtiter plate assay. Human, baboon or African green monkey plasma (5 ul) was added to 96-well plates in the presence of various concentrations of Pi (0-2000 nM), CaCl2 (2 mM), thrombin (0.125 U/ml) and human fibrinogen (2 mg/ml) and urokinase (10 U). The wells were incubated at 37° C., clot lysis was recorded kinetically for 120 min. and the time required for complete clot lysis was recorded.

[3] = test system: baboon clots; test: Primate clot lysis, microtiter plate, urokinase; details: baboon plasma, Pi 0-2000 nM, urokinase 10 U
Description: as §1, §2

[4] = test system: human clots; test: Primate clot lysis, microtiter plate, urokinase; details: human plasma, Pi 0-2000 nM, urokinase 10 U
Description: as §1, §2

[5] = test system: human clot lysis initiated by r-tPA; test: Clot lysis assay of Pi, MAb 340 and control MAb with r-tPA; details: human plasma, MAb 20 ug, r-tPA 2 nm
Description: as §1
The comparative effects of Pi, MAb 340 and a control MAb (anti-digoxin) were examined in a clot lysis assay in microtiter plates. Human plasma (50 ul) was mixed with the MAbs (20 ug) in duplicate and then clotted with CaCl2 and thrombin, with or without recombinant (r)-tPA (2 nm). Clot dissolution at 37 deg. C. was monitored at 405 nm for 120 min. The time required to fully dissolve the clots during the 120 min. observation period was recorded.

[6] = biological target: plasmin-mediated cleavage of factor V (Homo sapiens, UniProt P00747); test: Factor V cleavage by plasmin, SDS-PAGE; details: EACA 1 mM or Pi 5 ug, 1 hr RT
Chain of plasmin-mediated cleavage of factor V (P00747 97-580 limits assumed): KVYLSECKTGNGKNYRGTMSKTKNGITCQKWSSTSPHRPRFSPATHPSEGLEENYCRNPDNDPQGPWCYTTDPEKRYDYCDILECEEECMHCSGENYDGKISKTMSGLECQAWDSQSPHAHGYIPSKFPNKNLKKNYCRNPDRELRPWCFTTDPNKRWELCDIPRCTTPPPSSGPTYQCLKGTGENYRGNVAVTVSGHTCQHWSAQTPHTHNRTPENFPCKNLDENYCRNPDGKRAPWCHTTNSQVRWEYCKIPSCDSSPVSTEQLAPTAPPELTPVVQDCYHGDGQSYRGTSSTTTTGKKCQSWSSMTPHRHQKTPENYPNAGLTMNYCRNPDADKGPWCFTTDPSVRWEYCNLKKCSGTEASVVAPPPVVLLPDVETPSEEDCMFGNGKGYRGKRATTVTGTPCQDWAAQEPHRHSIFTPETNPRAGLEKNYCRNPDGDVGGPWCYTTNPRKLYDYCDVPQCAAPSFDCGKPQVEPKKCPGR
Chain of plasmin-mediated cleavage of factor V (P00747 581-810 limits assumed): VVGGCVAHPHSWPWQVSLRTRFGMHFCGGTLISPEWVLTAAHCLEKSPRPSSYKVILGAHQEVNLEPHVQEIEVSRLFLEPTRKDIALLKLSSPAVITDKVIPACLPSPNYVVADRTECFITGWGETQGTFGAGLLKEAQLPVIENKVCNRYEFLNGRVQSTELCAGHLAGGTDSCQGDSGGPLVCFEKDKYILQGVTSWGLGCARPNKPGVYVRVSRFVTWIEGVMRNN
Description: FIGS. 4A-4D show comparative inhibition of factor V cleavage and human clot fibrinolysis (dissolution) by Pi, EACA and a2AP. […] The relative migration of molecular weight standards is shown (kDa). […] Human plasma was clotted with CaCl2 (10 mM) and thrombin (1 U/ml) in the presence of trace amounts of 1251 fibrinogen for 1 h at 37 deg. C. After washing in 1 ml of TBS pH 7.4, tPA (5 nM) was added in the presence of various amounts of Pi (62.5 to 1000 nM), EACA (0.125 mM to 2 mM) or no inhibitor. After 2.5 h the amount of fibrinolysis was determined by measuring the amount of 125I-fibrin dissolved in the supernatant. Means of duplicate observations are shown. […] Clots were formed as above in the presence of human plasminogen (2 uM) and a2AP (1 uM) or Pi (1 uM) and various amounts of tPA (0-10 nM). Clot dissolution was monitored in duplicate over 2 h in microtiter plate wells at A405 nm. […] Human plasma clots were mixed with various concentrations of Pi IgG, Pi Fab and chimeric Pi Fab (25 nM-400 nM) and plasmin was activated by urokinase. The amount of clot lysis was determined as described in Methods.
Factor V cleavage. Human factor V (2 ug, IHFV, Innovative Research) was mixed with plasmin (0.05 ug) for 1 hr at RT in the presence of EACA (1 mM), Pi (5 ug) or a control monoclonal antibody (digoxin, 5 ug). […] Protein bands were detected by staining with Coomassie blue dye.

[7] = test system: plasmin-mediated fibrinolysis of human fibrin clots; test: Fibrinolysis of 125I-fibrin human plasma clots with tPA, EACA vs Pi; details: tPA 5 nM, 2.5 h; Pi 62.5 to 1000 nM, EACA 0.125 mM to 2 mM
[8] = test system: human plasma clots; test: Clot lysis assay of Pi IgG, Fab and chimeric Fab, urokinase; details: 25 nM-400 nM, 30 min
Description: FIGS. 4A-4D show comparative inhibition of factor V cleavage and human clot fibrinolysis (dissolution) by Pi, EACA and a2AP. […] The relative migration of molecular weight standards is shown (kDa). […] Human plasma was clotted with CaCl2 (10 mM) and thrombin (1 U/ml) in the presence of trace amounts of 1251 fibrinogen for 1 h at 37 deg. C. After washing in 1 ml of TBS pH 7.4, tPA (5 nM) was added in the presence of various amounts of Pi (62.5 to 1000 nM), EACA (0.125 mM to 2 mM) or no inhibitor. After 2.5 h the amount of fibrinolysis was determined by measuring the amount of 125I-fibrin dissolved in the supernatant. Means of duplicate observations are shown. […] Clots were formed as above in the presence of human plasminogen (2 uM) and a2AP (1 uM) or Pi (1 uM) and various amounts of tPA (0-10 nM). Clot dissolution was monitored in duplicate over 2 h in microtiter plate wells at A405 nm. […] The amount of clot lysis was determined as described in Methods.
The effects of Pi IgG, Fab or chimeric Fab were also compared in a clot lysis assay in microtiter plates. […] C. was monitored at 405 nm. The percent clot dissolution at 30 min. was determined as the percent change in peak turbidity from baseline=100%×(peak absorbance−30 min. absorbance)/(peak absorbance−baseline absorbance).

Chain of Plasmin (P00747 97-580 limits assumed): as the sequence (P00747 97-580 limits assumed) above
Chain of Plasmin (P00747 581-810 limits assumed): as the sequence (P00747 581-810 limits assumed) above

effect on clot lysis [2]: dose-related suppression
effect on clot lysis [3]: dose-related suppression
effect on Factor V cleavage by plasmin [6]: Factor V cleavage was attenuated
inhibition of clot lysis by Pi molecular forms [8]: effectively inhibited clot lysis
B1: Pi: mouse monoclonal antibody plasmin inhibitor binding plasmin protease domain loops 4 and 5; LC SEQ ID NO:1, HC SEQ ID NO:4 (antibody)
heavy: EVKLLESGGGLVQPGGSLKLSCAASGFDFSRYWMSWVRQAPGKGLEWIGEINPDSSTINYTPSLKDKFIISRDNAKNSLYLQMSKVRSEDTALYYCASYCGYSYDALDCWGQGTSVTVSSAKTTPPSVYPLAPGSAAQTNSMVTLGCLVKGYFPEPVTVTWNSGSLSSGVHTFPAVLQSDLYTLSSSVTVPSSTWPSETVTCNVAHPASSTKVDKKIVPRDCGCKPCICTVPEVSSVFIFPPKPKDVLTITLTPKVTCVVVDISKDDPEVQFSWFVDDVEVHTAQTQPREEQFNSTFRSVSELPIMHQDWLNGKEFKCRVNSVAFPAPIEKTISKTKGRPKAPQVYTIPPPKEQMAKDKVSLTCMITDFFPEDITVEWQWNGQPAENYKNTQPIMDTDGSYFVYGKLNVQKSNWEAGNTFTCSVLHEGLHNHHTEKSLSHSPGK
light: DIQMTQSPSSLSASLGGKVSITCKASQDINKYISWYQHKPGKGPRLLIHYTSTLQPGIPSRFSGSGSGRDYSFSISNLEPEDIATYYCLQYDNLYTFGGGTKLEIKRADAAPTVSIFPPSSEQLTSGGASVVCFLNNFYPKDINVKWKIDGSERQNGVLNSWTDQDSKDSTYSMSSTLTLTKDEYERHNSYTCEATHKTSTSPIVKSFNWNEC
effect on Vmax of plasmin cleavage of S2251 [1]: reduced the Vmax of plasmin cleavage of S2251
effect on clot lysis [4]: markedly prolonged plasmin-induced fibrinolysis
clot dissolution during 120 min [5]: did not significantly dissolve
effect on fibrinolysis of human fibrin clots [7]: significantly suppressed
